# B1: TPR t1 (parent)
# chain: GACCAAUCUGCCCUCAGAGCUCGAGAACAUCUUCGGAUGCAGAGGAGGCAGGCUUCGGUGGCGCGAUAGCGCCAACGUCCUCAACCUCCAAUGCAUCCCACCACAUGAUGAUGCCUGAAGAGCCUUGGUUUUUUG
# Variants of: B1
# Assay: polymerase ribozyme fitness, log enrichment relative to wild type (log ratio); higher = more active; in vitro selection for triplet polymerase activity
# Method in brief: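 Libraries of mutants in each subunit of a heterodimeric triplet polymerase ribozyme were generated by PCR and transcribed. In triplicate, each went through one in vitro selection round: annealing with biotinylated primer, partner subunit and triplets; frozen incubation at −7 °C; gel excision of extended constructs; streptavidin-bead capture; RT-PCR. Fitness, taken from Illumina sequencing of input and output libraries, is the logarithm of a genotype's enrichment over wild-type enrichment, averaged across replicates with inverse-variance weights. The logarithm is base 2, and genotypes needed ≥10 input reads and ≥1 read per output to be kept.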
row,Variant,polymerase ribozyme fitness (log ratio)
1,C53A G69U C88G U112A G122A U133C,1.96
2,G52C G122A,-1.3
3,G52C U67A C70A G117C,-6.05
4,G52C C115A,-1.03
5,G51C G60A,-3.46
6,G52A G71C G93C,-5.59
7,G52U C72G A121G,1.49
8,G52U C72A C85A,-1.3
9,G52U G58C C79U,-0.312
10,C53A A66U,-1.07
11,G52A C72G A95C,-2
12,G51U C88A U106A U112C,-3.27
13,G52A C56A,-0.146
14,G51U G61U G127A,-4.92
15,G51C G61A C94U C97U,-3.52
16,G51U G120C,-2.42
17,G51U G120U,-3.69
18,G52A A118U,0.938
19,G52A C70U C102U,-2.87
20,G52C U96C G110U,-1.98
21,G51U U54A C123G U129A,-2.43
22,G52U C72U,-0.747
23,G52C U59G A118G,-0.37
24,C53A C72G U92C U126A U132A,-4.63

row,Variant,polymerase ribozyme fitness (log ratio)
1,G52A C72A,0.151
2,G52C C56A C72G U132C,-3.89
3,G51U C72A U130G,-3.04
4,G51U G61U,-3.14
5,G52C U55C,-0.101
6,G52C U78C G117U,-2.77
7,C53A C72U U87A G107U,-4.92
8,G51C G127U,-5.2
9,C53A U81C U109A G110U U126G,-5.92
10,G52U C64U,-0.768
11,G52U U126G,-2.79
12,C53A C56U C72G A111C,-1.38
13,G51U,-3.23
14,G51C U130A,-3.62
15,G51C G113C,-5.71
16,G51U C73G,-3.52
17,G52U U54G G69C,-4.27
18,C53A G69U,1.4
19,G51U G52C U96C,-3.75
20,G52A G69C C104U G113C,-4.79
21,G51U A74G,-2.72
22,G51U C53U U112A A119G,-2.63
23,G52U C124A,0.485
24,G51C G57C C73A G77U U78G,-3.02

row,Variant,polymerase ribozyme fitness (log ratio)
1,G51U U54G C62A G113U,-7.8
2,G52U G71U,-0.703
3,G52A G122A,-0.494
4,G52A G63A C73U U81C C114A,-7.55
5,G52A U92G,-2.95
6,G52C U81A U130A,-2.3
7,G52A U133A,-0.415
8,C53A C89U U126C,-1.37
9,G51U C56A C98U C99U C124A U131G,-6.41
10,G52C C53G A68G G77A U81A C98U,-5.4
11,G52U U54G,-1.03
12,G52C C64U C123U,-0.169
13,G52A G77U G117U,-4.34
14,G52C A83C A118G U131A,-0.732
15,C53A G63U A74U C102G A103C A111G G117C,-6.88
16,C53A C70A A75U C79A C82G U112C,-3.2
17,C53A A74G,-0.303
18,G52C C56U,-0.823
19,G52C C56A,-0.559
20,G52A G57A U129A,-2.51
21,G52U C73U,-0.9
22,G52A C85G C124A,0.15
23,C53A G57A G93C,-0.961
24,C53A G71U C85A,-0.672

row,Variant,polymerase ribozyme fitness (log ratio)
1,G52A C53G U59A A119U,-4.71
2,C53A C89U C115A,-0.188
3,G52A G120C,0.847
4,G52C U132A,-1.09
5,G52U C82G,-2.18
6,G52A G69A,-3.61
7,G52A G69C,-1.72
8,G52A C114G,-3.02
9,G51U U54A C89U U129C,-2.82
10,G52A C104U,0.136
11,G51C G60A U112G G117C,-7.03
12,G52A C56U U59G C114U C124A G135C,-0.522
13,G52C C114U,-3.57
14,G52U U129A,-1.63
15,G52A G61A C79G,-0.673
16,G52U A121G,1.06
17,C53A U55G,0.151
18,C53A G71A C115U,-3.94
19,C53A C76U U87C,-0.534
20,G52U C72U U78C,-0.804
21,G52U G63C U92A,-4.96
22,G52U G120U,-0.714
23,C53A C56U U78C A118U G120C,0.115
24,G51U G69U U87G,-0.427

row,Variant,polymerase ribozyme fitness (log ratio)
1,G52A C70A U92A G93C A105U U112A C115A U130C,-6.48
2,G52C C123G U133G,0.949
3,G52U C56A,-1.92
4,G51U G61C G117C U131G,-7.34
5,G52A G61A G127U,-1.95
6,G51U C56A C62U U92A C101U,-6.34
7,C53A C56G U81G C101G U129C,-2.89
8,C53A U55A C82U,-0.263
9,G52U U67G C101U G120C,-6.94
10,G52U C73U C104G C115A,-6.56
11,C53A C89U U106C,-0.0062
12,G52A C56U G93A,-0.382
13,G51C G93C,-4.73
14,G52A C79U,-0.581
15,G52A C79A,-0.667
16,G52U C70U G113U,-5.82
17,C53A G77U C102U,-2
18,C53A C79A C104A U106A U132C,-3.18
19,C53A U78A,0.532
20,C53A C72U,-0.465
21,C53A C72A,-1.56
22,G52U G63A G93A,-1.45
23,G51U C62U,-3.78
24,G52C G71U,-0.867

row,Variant,polymerase ribozyme fitness (log ratio)
1,G51U U109A G128U,-5.92
2,C53A C82G A118G,-0.931
3,G52A C123A,-0.148
4,G52A U78A C115A,0.0466
5,C53A C72U C85U G122A,-0.784
6,G51U U112A,-3.68
7,G51U G61C U133G,-2.81
8,C53A G110A,-0.6
9,G52C C72U C73G,-1.01
10,G52A C88G,-0.655
11,G52A U92A C98U A119U C124A,-3.81
12,G52A C102A,-1.79
13,C53A C98U U112G,-3.36
14,G51C G63U A84U U112G U132A,-5.83
15,G52C G69C G117C,-6.05
16,G52U C115A,-0.782
17,G51U C64G U112G,-6.95
18,G52C G63C C85U C104U,-3.03
19,G51U G57A G65U A121U,-7.73
20,C53A G60A C72A A91U U92G C97A C124A,-7.15
21,G51U G60U C79G C85A C114U G120U G127U,-4.96
22,G52U G63U A119G G120U A121U,-0.023
23,G51U C79G U87G,-1.09
24,G52C G61C,-3.04

row,Variant,polymerase ribozyme fitness (log ratio)
1,C53A U55A G63A G71U G120C,-4.29
2,C53A G63C,-2.92
3,G52U C79A,-1.05
4,G52C U55G A83C C115U A118G,-2.39
5,C53A G60A A105C,-2.91
6,G52A G93U G120A,-0.0896
7,C53A G71C C86U,-3.57
8,G52C U131A,-0.555
9,G52A U54A G69U G77U C80G A83C A119U,-3.11
10,G51U C101U G120U,-4.49
11,G52C C70U C76U U106A,-2.68
12,C53A G63A G93A,-1.34
13,G52U U112G,-0.37
14,G52A G71C A95C G113C,-6.98
15,G51C G69U,-2.95
16,G52A G63U U129A,-3.94
17,G52U A103U,-6.74
18,G52U U59C C85U C124U,-1.1
19,G51U C79G C94A C124A,-1.56
20,G51C G110C,-6.54
21,G51U U55A C64U C114G C115U C123U,-7.28
22,G51U C72U U106A,-3.68
23,G52U C62G C89G U109C A111U,-6.22

# From the RNAGym collection of RNA variant scans (doi:10.1073/pnas.2313332121)
